# Patent publication US20150351390A1, “COMPOSITIONS AND METHODS FOR AUXIN-ANALOG CONJUGATION” (PIONEER HI-BRED INTERNATIONAL, INC., priority 2012, published 2015)
# B1: SmXP_002986992: GH3 protein, accession XP_002986992 (protein, listed as Selaginella moellendorffii)
# chain: MEDFEAVCKNAVQAQEEALVQILQRNGSCHYLQRFGQPLCLKSFKTQLPIISYDNISPELQQIADHGTSHLLLGCDPILYFSFSSGTSSGKHKILPQTNCGYSLLARAYASSNAYRDEVFPLESTKPIGLHFVYSGEQYKAKSGLLLGAGSTNYYKSEAYNQEAETLATPYEALLAGSDWQQTTYCHLLCGLVQRHKIEFIHATFAYTLSEAFRLLESDWKILCEDISARRVSESKVTDEKLRVPVLKLMERELRGKDSSQVAREISEIFVTSKESRWSGLLPLLWPRAKYVHTVVTGAMEPYIPVLKKYAGDKLAIVGFDYSASEGYLGINMRPATPPEEVVFTLIPYTMFFEFIPVDPEEVPDHQQGETLGFKDLQVGKQYELVVTTFEGLYRYRIGDVVKVTGFHHESPIVAFSYRKNAVLSINAEKVDEQELQKVVMGSAGPLEIANFTSCADFATKERPHYVIYWELKNDGDNSRHEELRDSCNALDRGFNAAYLVGRVDKTLGALELVTVKQGTFEKLMEKAIESGASASQYKTPRCIKSPALLELLDQGAIGRYTSSEDISSLLAEDWKPSVIHGL
# B2: PpGH3-1: GH3 protein, accession CAD42870 (protein, listed as Physcomitrella patens)
# chain: MASEVAKPVENGIHPKLEQSFDAPAATKPSNSELLKLHRDGVPFVMPSKRGIDTTAPDFDPQDFLDLLAEDVMFIQHEKLREILEVQADVEYLRRVGLNGRTDVESFRKCVPIVSYGDLEADIMRVVNGEKTPIFTVDPIVTLNLSSGTTAGKPKFIPSTTRAYEYFMFLQTFVTSIYRREFPGYKDGTSFTLAFAGKQIDTPSGIKAGAQSTNHFRGPMFRNRVRNANREYCVPDEVILSDDTTQSMYCHLLCALAQAPEIVKVYGTFAASIVSAVRALQKHWSEIVEDIRTGTLNAKITEPEMRTAVQQMLHPNPDLASRIEEECSKDNWEGILPRLFPNAHFVSCVISGSMLQYAPALKHFSGHLPTISLAYAACECSFIGFNPSMKCAPEDITYMLWPETAYYEFIPLDEDSNPEQDGDVVRTVEACDLEVGRQYELVVTNVIGLYRYRLGDVLTMKRFHKTAPVFEFVRRKNVILSVHTDKTDEKELQSVVNLATEALAGTGMELSDYTSTADVSTLPGRYVIFWEMVDSSDLDYDVLQHCANTLDANFNSDYRRWRSGHQIGPLELRIVKEGTFNRVMDSAVARGASPSQYKPPRCVNNPHTRQILDDGLVASFHSTITPNPAPIALTGS
# B3: AIGH3-9: GH3 protein, accession EFH58389 (protein, listed as Arabidopsis lyrata)
# chain: MDVMKLDYNYKGGNALTELERITSKAAEVQDNILCGILERNKDTEYLSKYMKGSKDVVEFKRSVPIITYKDIYPYIQRIANGEDSSLITGHPITEILCSSGTSAGEPKLMPTISEDLDRRTFLYNLIIPIVNKYIPGLDKGKAMYLNFVKAETSTPCGLPIRAVLTSYYKSKHFQCRPYDPFNDLTSPIQTILCEDSNQSMYCQLLAGLIHRHKVMRLGAVFASAFLRAISYLEKKWSQLCEDIRTGRLNPMITDPGCQIAMSCLLTSPDPELASEIEEICSRSSWKGILCHLWPRAKFIEAVVTGSMAQYIPALEFFGQGKIPLVCPMYASSETYFGVNVEPLSKPSDVVFTLLPNMCYFEFIPLGKNGALSFDLDDDEQVPCDKVVDLVNVKLGRYYELVVTTFAGLYRYRIGDVLQVAGFYNEAPQFRFICRRNVVLSIDLDKTNEEDLHRSITLAKKKLGSNAFLAEYTSYADTSSVPGHYVLFWEIQGHLEPKLMEGCCVAVEEELDYIYRQCRTKERSIGALEIRVVKPGTFEKLMDLIISQGGSFNQYKTPRCVKSNSATFKLLNGHVTASFFSPRDPTWVA
# B4: SmXP_002983845: GH3 protein, accession XP_002983845 (protein, listed as Selaginella moellendorffii)
# chain: MENEQLLLEKLESSSWSPGEAQDKVLAEILEKNAATDYFNRHGLRAATKEVFRQRAPVIEYEDIKDEINRIADGEAATLLCANPIADMFTSSGTSGGAHKLFPKVEGHYAVSKYFFDLATALLNRDLPGLRTGKALYFLYVRSGRKTPGGLPAYPALTGYYNSLEFRNRPFDPSNDYTSPLEVILCTDSVQASYCHLLCGLIHARDVTKLGCFFASVFVRSIRCLEAWWQELSRDIRTGTLSERVVDPACREAVEKILRPDPELANVIDEACSSGSLKGIVRKLWPSAKAIDTVVTGAMEQYVGEVDYLTDGLPIASMIYASSESFFGVNLKPLCEPSQISYMFLPETSYYEFLPVARSEEKASREEPVELVDVEQGHEYELVITTNAGLYRYRMGDVLRVEGFHNKAPLFSFVCRTNVLLSIDSDKTDEKELQTAVMNAFAALRNGVTSKEGEAIRLTDYTSYADLSSNPPHYVIYWELSSELHLEPEKAGECCYKMEESLSVVYHRGRMERSIGALELRLVTPGTFNRIADDAASRGGSVSQFKLPRCIKKNATRMLEIVESGVYQQYFSPRAPKY
# B5: AtGH3-9: GH3 protein, accession O82243 (protein, listed as Arabidopsis thaliana)
# chain: MDVMKLDHDSVLKELERITSKAAEVQDNILRGILERNKDTEYLSKYMNGSKDVLEFKRAVPIIIYKDIYPYIQRIANGEDSSLITGHSITEILCSSGTSAGEPKLMPTIPEDLDRRTFLYNLIIPIVNKYITGLDKGKAMYLNFVKAETSTPCGLPIRAVLTSYYKSKHFQCRPYDPFNDLTSPIQTILCEDSNQSMYCQLLAGLIHRHKVMRLGAVFASAFLRAISYLEKKWSQLCEDIRTGSLNPMITDPGCQMAMSCLLMSPNPELASEIEEICGRSSWKGILCQLWPKAKFIEAVVTGSMAQYIPALEFFSQGKIPLVCPMYASSETYFGVNVEPLSKPSDVVFTLLPNMCYFEFIPLGKNGTLSFDLDDDEQVPCDKVVDLVNVKLGRYYELVVTTFAGLYRYRIGDVLQVAGFYNGAPQFRFICRRNVVLSIDLDKTNEEDLHRSITLAKKKLGSNAFLAEYTSYADTSSVPGHYVLFWEIQGHLEPKLMEECCVAVEEELDYIYRQCRTKERSIGALEIRVVKPGTFEKLMDLIISQGGSFNQYKTPRCVKSNSATFKLLNGHVMASFFSPRDPTWVP
# Assay: LC-MS assay of GH3 conjugation of 2,4-D with Asp or Glu
# Format: biochemical
# Settings: conjugation of 2,4-D with Asp by recombinant GH3 protein; 2,4-D-Asp product by LC-MS; 5 mM 2,4-D substrate
# Description: (§1) To detect and monitor the formation of acyl conjugates with 2,4-D or dicamba, a sensitive LC-MS method was developed using the respective amino acid conjugate standards. […] The reaction was performed at 30° C., 105 rpm, for 3 hours in buffer containing 20 mM Tris-HCl (pH 8.0), 5 mM MgCl2, 5 mM auxin (IAA, 2,4-D or dicamba), 5 mM ATP, 5 mM Asp or Glu, 1 mM DTT and 44 to 164 μg/mL purified GH3 protein in 100 μL reaction. After 3 hours of reaction, 400 μL 100% MeOH was added to the reaction mixture for protein precipitation. The supernatant was diluted 20× in water and then analyzed by LC-MS (AB Sciex 4000 QTrap coupled with Shimadzu Nexera UHPLC) using a Phenomenex Luna 3 μm Phenyl-Hexyl (00B-4256-Y0) column. The concentration of the conjugates was calculated based on the standards. Kinetic parameters were estimated by fitting initial velocity values to the Michaelis-Menten equation.
# (§2) The GH3 superfamily conjugase activity analysis of IAA, 2,4-D or dicamba with Asp or Glu was done using LC-MS to analyze the final conjugate products as described in Example 1. Protein sequences of GH3 homologs (Table 3) were obtained from public databases (NCBI, http://www.ncbi.nlm.nih.gov/) by Blast analysis of AtGH3.17 protein sequence (accession # Q9FZ87). Coding sequences were designed for optimal expression in E. coli based on the protein sequences and synthesized. Synthesized coding sequences along with N-term his-tag coding sequences were cloned into a pET24a-based E. coli expression vector. The E. coli expression vectors were transformed into OverExpress C41(DE3) cells (Lucigen) for protein expression. Recombinant E. coli strains were inoculated into 5 ml LB media supplemented with 40 mg/L kanamycin and cultured overnight at 37° C. The overnight culture (0.5 mL) was inoculated into 50 mL LB medium plus 40 mg/L kanamycin and grown at 30° C. until OD600 reached 0.6. The cultures were induced with 0.2 mM IPTG at 16° C., 230 rpm overnight. Cells were harvested by centrifugation at 7,000 rpm for 10 mins. The cell pellet from 50 mL of cell culture was frozen and thawed twice and then lysed in 800 μL lysis buffer A (150 mM NaCl, 50 mM Tris-HCl pH 8.0, 5 mM MgCl2, 10% glycerol) plus 20 mM imidazole, 1 mM DTT, 0.2 mg/ml lysozyme, 1/200 protease inhibitor cocktail (EMD set3, EDTA free) and 1/2000 endonuclease. Lysate was then centrifuged at 13,000 rpm for 30 min at 4° C. Supernatant was loaded onto 200 μL Ni-NTA columns pre-equilibrated with buffer A with 20 mM imidazole at 4° C. Each column was then washed with (1) 2×800 μL of buffer A with 10 mM imidazole, (2) 2×800 μL of buffer A with 20 mM imidazole and (3) 2×200 μL of buffer A with 50 mM imidazole. Protein was eluted with 200 μL of buffer A with 250 mM imidazole. The concentration was measured by Bradford assay. Purified protein was used in conjugation reaction assays as described in example 1.
row,Molecule,"kcat (hrs−1) 2,4-D-Asp [h⁻¹]"
1,B1,0.000
2,B2,0.078
3,B3,0.000
4,B4,0.090
5,B5,0.000

# Same assay, conditions: conjugation of 2,4-D with Glu by recombinant GH3 protein; 2,4-D-Glu product by LC-MS; 5 mM 2,4-D substrate
row,Molecule,"kcat (hrs−1) 2,4-D-Glu [h⁻¹]"
1,B1,0.006
2,B2,0.122
3,B3,0.015
4,B4,0.052
5,B5,0.005

# Same assay, conditions: result in words
row,Molecule,"2,4-D conjugation activity with Asp or Glu"
1,B1,"2,4-D conjugases"
2,B2,"2,4-D conjugases"
3,B3,"2,4-D conjugases"
4,B4,"2,4-D conjugases"
5,B5,"2,4-D conjugases"

# Assay: LC-MS assay of GH3 conjugation of IAA with Asp or Glu
# Format: biochemical
# Settings: conjugation of IAA with Asp by recombinant GH3 protein; IAA-Asp product by LC-MS
# Description: as §1, §2
row,Molecule,kcat (hrs−1) IAA-Asp [h⁻¹]
1,B1,0.000
2,B2,0.000
3,B3,0.000
4,B4,0.000
5,B5,0.000

# Same assay, conditions: conjugation of IAA with Glu by recombinant GH3 protein; IAA-Glu product by LC-MS
row,Molecule,kcat (hrs−1) IAA-Glu [h⁻¹]
1,B1,0.000
2,B2,0.000
3,B3,0.000
4,B4,0.000
5,B5,0.000

# Same assay, conditions: result in words
row,Molecule,IAA conjugation activity with Asp or Glu
1,B1,IAA-inactive
2,B2,IAA-inactive
3,B3,IAA-inactive
4,B4,IAA-inactive
5,B5,IAA-inactive
